Measured values from patent US20230192808A1 (REGENTS OF THE UNIVERSITY OF COLORADO A BODY CORPORATE, published 2023).
Where no end group is shown, it is not given here. The star is where a group is joined. Biotin = O=C1N[C@H]2[C@H](CS[C@H]2CCCCC(=O)*)N1; PEGS = not defined here

What was measured:
HLA-DRB1*04:01 = target: T1, HLA-DRB1*04:01 (human, UniProt P01903 26-216; P01911 30-227, limits assumed); experiment: flow cytometry, biotinylated peptide on HLA-expressing T2 cells, streptavidin-PE
T1 construct: whole, on cells; on T2 cells; also called DR4
T1 MHC II alpha: not shown
T1 MHC II beta: not shown

HLA-DRB1*04:01 G86L = target: T2, HLA-DRB1*04:01 G86L (human); experiment: as above
T2 construct: pocket 1 variant on T2 cells

HLA-DRB1*15:01 = target: T3, HLA-DRB1*15:01 (human, UniProt P01903 26-216; P01911 30-227, limits assumed); experiment: as above
T3 construct: whole, on cells; HLA class II molecule expressed on class II negative T2 cells that carry DRA1*01:01

HLA-DRB1*15:01 F47Y = target: T4, HLA-DRB1*15:01 F47Y (human); experiment: as above
T4 construct: engineered allele on T2 cells

HLA-DRB1*15:01 A71R = target: T5, HLA-DRB1*15:01 A71R (human); experiment: as above
T5 construct: engineered allele on T2 cells

HLA-DRB1*15:01 V86G = target: T6, HLA-DRB1*15:01 V86G (human); experiment: as above
T6 construct: engineered allele on T2 cells

HLA-DRB1*07:01 = target: T7, HLA-DRB1*07:01 (human); experiment: as above
T7 construct: whole, on cells; on T2 cells by the general method; the making of this line is not described on its own; also called resistant allele (NMO)

[1] = target: T8, HLA-DQ8 (DQA1*03:01/DQB1*03:02) (human, UniProt P01909 24-216; P01920 33-230, limits assumed); experiment: flow cytometry, biotinylated peptide titrated on HLA-expressing T2 cells, streptavidin-PE
T8 construct: whole, on cells; on T2 cells
T8 MHC II alpha: not shown
T8 MHC II beta: not shown

[2] = target: T9, HLA-DQ2 trans (DQA1*03:01/DQB1*02:01) (human, UniProt P01909 24-216, limits assumed); experiment: as above
T9 construct: whole, on cells; on T2 cells
T9 MHC II alpha: not shown
T9 MHC II beta: not shown

[3] = target: T10, HLA-DQ2 A57D (DQA1*05:01/DQB1*02:01 A57D) (human, UniProt P01909 24-254; P01920 33-261); experiment: as above
T10 construct: A57D variant of the DQB1 chain, cloned into T2 cells
T10 alpha: not shown
T10 beta: not shown

[4] = target: T11, HLA-DQ2 (DQA1*05:01/DQB1*02:01) (human, UniProt P01909 24-216, limits assumed); experiment: as above
T11 construct: whole, on cells; on T2 cells

{Biotin-PEGS}-GQVELGGWSKMDQLA (reading uncertain) [Hybrid Insulin Peptide HIP1-WE14]: no binding (tested: 100 uM) (HLA-DRB1*04:01); no binding (tested: 100 uM) (HLA-DRB1*04:01 G86L).

AQGTLSKIFKLGGRDSRSGSPMARR (also: biotinylated, site not given here) [MBP^146-170 peptide]: no binding (tested: 100 µM (general method)) (HLA-DRB1*15:01); binds (HLA-DRB1*04:01 G86L); binds (HLA-DRB1*15:01 F47Y). AQGTLSKIFKLGGRDSRSGSPMARR (also: biotinylated, site not given here) [MBP^146-170 peptide]: binds (HLA-DRB1*15:01 A71R); binds (HLA-DRB1*15:01 V86G).

LVRYWISAFP (also: biotinylated, site not given here, also called RASDRP2) [RASGRP2 78-87 peptide]: binds (HLA-DRB1*15:01); binds (HLA-DRB1*04:01).

SQVETDDLILKPGVV (peptide, UniProt P55087 285-299, looked up, also: biotinylated, site not given here, also called aquaporin 4 peptide 6) [AQP4-6 peptide]: no binding (tested: 100 µM (general method)) (HLA-DRB1*07:01).

{Biotin-PEGS}-SLQPLALEAEDLQV (reading uncertain) [Hybrid Insulin Peptide HIP11-C peptide]: no binding (tested: 100 uM) (HLA-DRB1*04:01); no binding (tested: 100 uM) (HLA-DRB1*04:01 G86L); no binding [1]. {Biotin-PEGS}-SLQPLALEAEDLQV (reading uncertain) [Hybrid Insulin Peptide HIP11-C peptide]: binds [2]; binds [3].

HLVEELYLVAGEEG (also: biotinylated, site not given here) [Insulin Mimotope peptide]: binds (HLA-DRB1*04:01); no binding [4]; binds [1]. HLVEELYLVAGEEG (also: biotinylated, site not given here) [Insulin Mimotope peptide]: binds [2]; binds [3].

AMMIARFKMFPEVKEKG (also: biotinylated, site not given here) [GAD65^265-281 peptide]: no binding (tested: 100 uM) (HLA-DRB1*04:01 G86L).

FFRDHSYQEEA (also: biotinylated, site not given here) [MOG^97-109 peptide]: no binding (tested: 100 uM) (HLA-DRB1*04:01 G86L).

{Biotin-PEGS}-GQVELGGGNAVEVLK (reading uncertain) [Hybrid Insulin Peptide HIP6-IAPP2]: no binding (tested: 100 uM) (HLA-DRB1*04:01); no binding (tested: 100 uM) (HLA-DRB1*04:01 G86L).

RSQVETDDLILKPGV (peptide, UniProt P55087 284-298, looked up, also: biotinylated, site not given here, also called aquaporin 4 peptide 5) [AQP4-5 peptide]: no binding (tested: 100 µM (general method)) (HLA-DRB1*07:01).

{Biotin-PEGS}-GQVELGGGSSPETLI (reading uncertain, also called HIP9; HIP9-NPY) [Hybrid Insulin Peptide HIP8-NPY]: no binding (tested: 100 uM) (HLA-DRB1*04:01); no binding (tested: 100 uM) (HLA-DRB1*04:01 G86L); no binding [4]. {Biotin-PEGS}-GQVELGGGSSPETLI (reading uncertain, also called HIP9; HIP9-NPY) [Hybrid Insulin Peptide HIP8-NPY]: binds [2]; binds [3].

ENPVVHFFKNIVTPRTPPP (also: biotinylated, site not given here) [MBP^83-101 peptide]: binds (HLA-DRB1*15:01); binds (HLA-DRB1*04:01 G86L).
